Source: the supplement of paper PMC12042874
± gives the uncertainty stated by the source.

assay: amyloid nucleation score (Sup35N fusion, yeast selection) (log enrichment); library NNK2; higher = more nucleation; inactive = no reads after selection
Summary of the method: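 Sup35N was fused to peptides of 20 random codons and expressed in psi-negative yeast, which were induced with 100 μM copper sulfate for 24 hours and then grown on medium lacking adenine and uracil for 7 days at 30°C. Plasmid inserts from input and output were sequenced on Illumina. The nucleation score is the DiMSum log enrichment of output over input reads, centred on the mode score of non-aggregating sequences. Sequences with under 100 input reads were left out, and random libraries had three technical output replicates.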

Substance | amyloid nucleation score
RTHTKLGT | 0.462 ± 0.42
RTLHSLWHNAT | 0.906 ± 0.35
RTMFNLHADCERNLFWFGGW | 5.13 ± 0.065
RTNYWVIAWIYAFGS | -0.716 ± 1.1
RTPTRILQAMLFYSRDHYSI | 0.218 ± 0.8
RTSTYLCMAVNKGVFVSNSV | -0.576 ± 0.64
RTVTNEGTCFNGWLCYAREG | 10.15 ± 0.063
RTYWGRKLNCVQF | 6.716 ± 0.04
RVCPLLYYGRDLLQLTMSSM | 0.314 ± 0.53
RVDTYYQNL | 5.21 ± 0.059
RVGQGSEACFRSWSIAGPPY | 2.8 ± 0.14
RVGVIFRKYWSFRYFSCKEN | -0.59 ± 1.1
RVHSCCTGKIGYKGVIVISV | 0.051 ± 0.43
RVIARLLMLWFHPPCSSTKR | 6.203 ± 0.058
RVKYILMVQSLIFWNHILNV | inactive
RVLGWCSNSWMVEMSNECSW | 1.13 ± 0.3
RVLMHHYTLANLVSLVTNFF | 5.867 ± 0.043
RVMGCVMGIRGWRIRIGNSG | 1.42 ± 0.47
RVMRCGCIDVQAILNVIVSQ | 9.316 ± 0.039
RVMRLGTLEDNWGDHGLSSR | -0.583 ± 0.44
RVNPCMTEGSLGLICSPYWY | -0.511 ± 0.22
RVRIYMTWFFTPIIWERWDG | inactive

Substance | amyloid nucleation score
RVRWYSCLVFMISTGFAFL | -0.702 ± 0.76
RVSTEVFCSLLVGTHLGRGP | 4.24 ± 0.13
RVWSY | inactive
RVYEVFGQKATGQMARRSVG | 1.78 ± 0.34
RVYIFTCYGSSV | 7.997 ± 0.074
RWAFTSFGSCLDKCYKYDYC | -0.913 ± 0.49
RWCSVGNLVRSITR | 0.464 ± 0.57
RWEMLPVKSHNNLRIRK | -0.293 ± 0.31
RWICWAMCSYLRRRKKP | 0.527 ± 0.65
RWLDSERRTTRHLCSRGYST | 1.24 ± 0.38
RWLVRTEKSS | 2.03 ± 0.1
RWMRTSAGGCGSKVVWNLLG | 0.682 ± 0.24
RWSYLYSKEVH | -1.28 ± 0.64
RWVRA | 1.18 ± 0.21
RYCLTVSKGLRSG | -0.722 ± 0.49
RYCVDNW | 0.122 ± 0.41
RYFINFSSLCHQLDILWRCV | -1.03 ± 0.76
RYMGVMVYKAPPRRTWCGKV | -0.237 ± 0.41
RYNILSSSATV | inactive
RYNLKQCL | inactive
RYPFFEMVRSTMQSMIENQ | 0.612 ± 0.3
RYRALPTMPLEMSVQGDLRV | -0.319 ± 0.25

Substance | amyloid nucleation score
RYRSFICALLRGFTDLACL | -1.53 ± 1.1
RYRWDLSPRNTTTN | 3.22 ± 0.072
RYSFD | -0.588 ± 1.1
RYWKFA | 0.744 ± 0.74
SAACQCLDFWCSGLGQSQGL | 6.59 ± 0.075
SACDGPGTQSRIVGWGHSCV | 1.33 ± 0.27
SAFDKASERLCSESVYKGKN | 1.7 ± 0.099
SAFSFAIVIYFRLCKVGLVD | -0.92 ± 1.1
SAGGVSPFP | -0.659 ± 0.63
SAKNMFDMYNCLDTLVVSWD | -0.095 ± 0.46
SAKSNGVQ | 1.16 ± 0.32
SALRSSEEFSAFCVE | -0.084 ± 0.74
SALRVSEGMLSSGEIAHLVY | -0.052 ± 0.23
SANSRVGGLGNL | 0.717 ± 0.39
SARRGCYWEAYCATCLKGWM | -1.03 ± 0.76
SARRRINGNPCEEMNQRLAV | 1.08 ± 0.53
SASFRGG | -0.935 ± 0.48
SAVIFAESTCV | -0.512 ± 0.79
SAVSMMLYWGSLNRVDYCWS | 0.877 ± 0.32
SAVSPVSVADR | -0.656 ± 1.1
SAYGVVSSWMR | -0.266 ± 0.55
SCDLYDTKSESFWLPSNMGS | 0.73 ± 0.44

Substance | amyloid nucleation score
SCDVMIRYLSLGTLSYVRAV | -0.032 ± 1.1
SCIYRE | -0.097 ± 0.21
SCLLYCYSNSWFFIFNQR | -0.979 ± 1
SCMCMEICINWNFRCIDGRG | 6.66 ± 0.078
SCNNLGDLWLSIILVKSET | 0.044 ± 1.1
SCQLQDKLMLS | 0.999 ± 0.16
SCRIFFE | -0.062 ± 0.65
SCRVLIGV | 0.878 ± 0.46
SCSRLVFRRVVSGIISLCME | -0.901 ± 0.79
SCSSLYT | 1.11 ± 0.43
SCSVTSAFRWTRCGLLRGIW | -0.048 ± 0.3
SCSYRFSRSDDNCKTRFIAF | -0.582 ± 1.1
SCVMGYKEVAFL | -0.081 ± 0.34
SDFIAGVKLSRNFDGRG | -0.097 ± 1.1
SDFMTKYHHL | 3.33 ± 0.058
SDFVEKLLWFSY | 0.039 ± 0.77
SDGSGNGEWSEMQVLWTRSN | 1.07 ± 0.33
SDIFRK | -1.27 ± 0.62
SDLANTLEPELQAFVIQ | -0.029 ± 0.61
SDNRENFSRTFCFSVVGNWK | inactive
SDNSM | -0.235 ± 0.32
